Test results reported in EP4703387A1 (University of Tsukuba, dated 2026).

Assays:
human CD300C [1] = molecular target: T1, human CD300C (human, UniProt Q08708 21-224); assay: flow cytometry on BW/huCD300C cells, purified antibody
T1 construct: whole, on cells; also called huCD300C; BW/huCD300C
T1 sequence (looked up): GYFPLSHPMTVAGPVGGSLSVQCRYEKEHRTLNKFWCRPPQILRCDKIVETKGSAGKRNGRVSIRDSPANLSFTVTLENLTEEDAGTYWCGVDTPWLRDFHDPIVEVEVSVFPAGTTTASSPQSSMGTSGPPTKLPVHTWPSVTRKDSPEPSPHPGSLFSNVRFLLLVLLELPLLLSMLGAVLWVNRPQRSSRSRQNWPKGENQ

human CD300A-Q [2] = molecular target: T2, human CD300A-Q (human, UniProt Q9UGN4 18-299); assay: flow cytometry on BW/huCD300A-Q cells, purified antibody, 0.5 µg per 1 × 10^5 cells
T2 construct: whole, on cells; also called huCD300A-Q; human CD300A^Gln111
T2 sequence (looked up): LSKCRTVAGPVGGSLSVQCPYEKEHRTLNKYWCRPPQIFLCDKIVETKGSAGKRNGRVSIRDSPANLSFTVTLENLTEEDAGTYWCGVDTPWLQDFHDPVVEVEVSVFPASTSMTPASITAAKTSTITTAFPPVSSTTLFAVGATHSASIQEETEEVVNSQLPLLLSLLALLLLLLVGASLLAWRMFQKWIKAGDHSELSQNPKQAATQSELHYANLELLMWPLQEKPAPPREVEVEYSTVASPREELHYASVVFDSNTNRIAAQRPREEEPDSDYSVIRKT

human CD300A-Q [3] = molecular target: T2, human CD300A-Q; assay: assay not given; reference antibody in the CD300A-Q flow cytometry comparison of paragraph 258
human CD300A-Q [4] = molecular target: T2, human CD300A-Q; assay: flow cytometry analysis using CD300A-Q
[5] = molecular target: T3, human CD300A-R (as used in the BLI measurement) (human, UniProt Q9UGN4 18-180, limits assumed); assay: biolayer interferometry (BLI); format not described
T3 sequence (looked up): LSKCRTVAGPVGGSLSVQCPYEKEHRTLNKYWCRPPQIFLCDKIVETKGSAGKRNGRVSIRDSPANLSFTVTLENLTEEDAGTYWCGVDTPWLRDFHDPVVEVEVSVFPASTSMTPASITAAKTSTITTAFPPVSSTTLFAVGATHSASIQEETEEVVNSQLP

human CD300C [6] = molecular target: T1, human CD300C; assay: flow cytometry on BW/huCD300C cells, biotinylated antibody with SA-APC
human CD300A-Q [7] = molecular target: T2, human CD300A-Q; assay: assay not named for Hu NO. 1T on CD300A-Q (CD300A-Q flow cytometry is listed for Hu NO. 1R, 1U and 1W)
human CD300A-Q [8] = molecular target: T2, human CD300A-Q; assay: assay not named for Hu NO. 1V on CD300A-Q (CD300A-Q flow cytometry is listed for Hu NO. 1R, 1U and 1W)

B1: Antibody NO. 3 (antibody, V domains shown)
VH: QIQLVQSGPELKKPGETVKISCKASGYTFTHYGLNWVKQAPGKGLQWMGWIHTYTGESTYADDFKGRSAFSLETSASTAYLQINNLKNEDTATYFCARGGKDALDYWGQGTSVTVSS
VL: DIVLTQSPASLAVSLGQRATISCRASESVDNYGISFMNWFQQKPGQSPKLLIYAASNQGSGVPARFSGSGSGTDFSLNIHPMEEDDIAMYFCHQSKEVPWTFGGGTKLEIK
notes: Mouse monoclonal antibody from a hybridoma
Q: Does B1 bind (human CD300C [1])?
A: no binding (tested: 0.5 µg antibody per 1 × 10^5 cells)

Q: Does B1 bind (human CD300A-Q [2])?
A: binds

B2: Antibody NO. 1 (antibody, V domains shown)
VH: EVQLVESGGDLVKPGGSLKLSCAASGFTFSSYGMSWVRQTPDKRLEWVATISSGGSYTYYPDSVKGRFTISRDNAKNTLYLQMSSLKSEDTAMYYCARHGDYGYPWFAYWGQGTLVTVSA
VL: QIVLTQSPAIMSASLGERVTMTCTASSSVSSSYLHWYQQKPGSSPKLWIYSTSNLASGVPARFSGSGSGTSYSLTISSMEAEDAATYYCHQYHRSHTFGGGTKLEIK
notes: Mouse monoclonal antibody from a hybridoma, purified from ascites; also called mouse Antibody NO
Q: Which results are given for B2?
A: binding result (human CD300C [1]): no binding (tested: 0.5 µg antibody per 1 × 10^5 cells); binding result (human CD300A-Q [2]): binds

B3: chimeric NO. 1 IgG1/kappa antibody (Ch NO. 1) (antibody, V domains shown)
VH: EVQLVESGGDLVKPGGSLKLSCAASGFTFSSYGMSWVRQTPDKRLEWVATISSGGSYTYYPDSVKGRFTISRDNAKNTLYLQMSSLKSEDTAMYYCARHGDYGYPWFAYWGQGTLVTVSA
VL: QIVLTQSPAIMSASLGERVTMTCTASSSVSSSYLHWYQQKPGSSPKLWIYSTSNLASGVPARFSGSGSGTSYSLTISSMEAEDAATYYCHQYHRSHTFGGGTKLEIK
notes: Mouse NO; 1 VH and VL on human γ-1 and κ constant regions; The γ-1 chain carries L234A/L235A; also called mouse-human chimeric NO; 1 IgG1/kappa antibody
Q: Does B3 bind (human CD300A-Q [3])?
A: binds

B4: HuNO.1R (antibody, V domains shown)
VH: EVQLVESGGGLVQPGGSLRLSCAASGFTFSSYGMSWVRQAPGKRLEWVATISSGGSYTYYPDSVKGRFTISRDNAKNSLYLQMNSLRAEDTAVYYCARHGDYGYPWFAYWGQGTMVTVSS
VL: QIQMTQSPSSLSASVGDRVTMTCTASSSVSSSYLHWYQQKPGKAPKLWIYSTSNLASGVPSRFSGSGSGTDYTLTISSLQPEDFATYYCHQYHRSHTFGGGTKVEIK
notes: Transient HEK293 supernatant; Human IgG/kappa constant regions
Q: Does B4 bind (human CD300A-Q [4])?
A: binds

B5: HuNO.1U (antibody, human IgG1, kappa, L234A L235A, V domains shown)
VH: EVQLVESGGGLVQPGGSLRLSCAASGFTFSSYGMSWVRQAPDKRLEWVATISSGGSYTYYPDSVKGRFTISRDNAKNSLYLQMNSLRAEDTAVYYCARHGDYGYPWFAYWGQGTMVTVSS
VL: QIQMTQSPSSLSASVGDRVTMTCTASSSVSSSYLHWYQQKPGKAPKLWIYSTSNLASGVPSRFSGSGSGTDYTLTISSLQPEDFATYYCHQYHRSHTFGGGTKVEIKR
notes: VH = Hu NO; also called Humanized NO; 1 antibody
Q: B5 was tested. Which Kd [5] did it give?
A: 22 nM

Q: Does B5 bind (human CD300C [6])?
A: no binding (tested: 0.5 µg antibody per 1 × 10^5 cells)

B6: HuNO.1W (antibody, V domains shown)
VH: EVQLVESGGDLVQPGGSLRLSCAASGFTFSSYGMSWVRQAPGKRLEWVATISSGGSYTYYPDSVKGRFTISRDNAKNSLYLQMNSLRAEDTAVYYCARHGDYGYPWFAYWGQGTMVTVSS
VL: QIQMTQSPSSLSASVGDRVTMTCTASSSVSSSYLHWYQQKPGKAPKLWIYSTSNLASGVPSRFSGSGSGTDYTLTISSLQPEDFATYYCHQYHRSHTFGGGTKVEIK
notes: as for B4
Q: Does B6 bind (human CD300A-Q [4])?
A: binds

B7: HuNO.1T (antibody, V domains shown)
VH: EVQLVESGGGLVQPGGSLKLSCAASGFTFSSYGMSWVRQAPGKRLEWVATISSGGSYTYYPDSVKGRFTISRDNAKNSLYLQMNSLRAEDTAVYYCARHGDYGYPWFAYWGQGTMVTVSS
VL: QIQMTQSPSSLSASVGDRVTMTCTASSSVSSSYLHWYQQKPGKAPKLWIYSTSNLASGVPSRFSGSGSGTDYTLTISSLQPEDFATYYCHQYHRSHTFGGGTKVEIK
notes: as for B4
Q: Does B7 bind (human CD300A-Q [7])?
A: binds

B8: HuNO.1V (antibody, V domains shown)
VH: EVQLVESGGGLVQPGGSLRLSCAASGFTFSSYGMSWVRQAPGKRLEWVATISSGGSYTYYPDSVKGRFTISRDNAKNSLYLQMNSLRAEDTAMYYCARHGDYGYPWFAYWGQGTMVTVSS
VL: QIQMTQSPSSLSASVGDRVTMTCTASSSVSSSYLHWYQQKPGKAPKLWIYSTSNLASGVPSRFSGSGSGTDYTLTISSLQPEDFATYYCHQYHRSHTFGGGTKVEIK
notes: Position 89 may be a Kabat number rather than a count on the entry; Transient HEK293 supernatant; Human IgG/kappa constant regions
Q: Does B8 bind (human CD300A-Q [8])?
A: binds
